Source: patent US20260295010 (published 2026)

Experiments:
IL-12RB2-hFc = target: T1, IL-12RB2-hFc (human, UniProt Q99665); assay: SPR, 25C
T1 chain: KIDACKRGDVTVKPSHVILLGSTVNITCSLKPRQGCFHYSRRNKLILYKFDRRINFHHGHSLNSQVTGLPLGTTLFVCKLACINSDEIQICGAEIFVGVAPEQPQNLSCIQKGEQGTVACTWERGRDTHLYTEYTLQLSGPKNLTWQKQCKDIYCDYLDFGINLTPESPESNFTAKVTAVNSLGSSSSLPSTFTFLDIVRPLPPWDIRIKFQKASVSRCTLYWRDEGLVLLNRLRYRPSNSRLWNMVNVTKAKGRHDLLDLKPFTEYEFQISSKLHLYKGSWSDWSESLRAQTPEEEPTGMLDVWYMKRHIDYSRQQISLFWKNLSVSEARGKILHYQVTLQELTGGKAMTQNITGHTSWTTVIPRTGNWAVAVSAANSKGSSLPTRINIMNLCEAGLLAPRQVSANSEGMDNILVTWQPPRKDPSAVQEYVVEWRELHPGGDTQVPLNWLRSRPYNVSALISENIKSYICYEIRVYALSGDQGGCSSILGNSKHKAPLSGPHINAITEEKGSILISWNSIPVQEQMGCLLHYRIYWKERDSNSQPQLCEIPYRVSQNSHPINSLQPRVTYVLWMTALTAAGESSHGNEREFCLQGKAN

IL-12RB1-hFc = IL-12RB1-hFc (human, UniProt P42701); assay: SPR, 25C

Row | Binder | Kd (IL-12RB2-hFc) | Kd (IL-12RB1-hFc)
1 | IL-12p70 I90A (protein) chain 1: MIWELKKDVYVVELDWYPDAPGEMVVLTCDTPEEDGITWTLDQSSEVLGSGKTLTIQVKEFGDAGQYTCHKGGEVLSHSLLLLHKKEDGAWSTDILKDQKEPKNKTFLRCEAKNYSGRFTCWWLTTISTDLTFSVKSSRGSSDPQGVTCGAATLSAERVRGDNKEYEYSVECQEDSACPAAEESLPIEVMVDAVHKLKYENYTSSFFIRDIIKPDPPKNLQLKPLKNSRQVEVSWEYPDTWSTPHSYFSLTFSVQVQGKSKREKKDRVFTDKTSATVICRKNASISVRAQDRYYSSSWSEWASVPCSGGGSHHHHHH chain 2: MRNLPVATPDPGMFPSLHHSQNLLRAVSNMLQKARQTLEFYPCTSEEIDHEDITKDKTSTVEACLPLELTKNESCLNSRETSFITNGSSLASRKTSFMMALCLSSIYEDLKMYQVEFKTMNAKLLMDPKRQIFLDQNMLAVIDELMQALNFNSETVPQKSSLEEPDFYKTKIKLCILLHAFRIRAVTIDRVMSYLNAS | 0.35 nM | 0.06 nM
2 | IL-12p70 K105A (protein) chain 1: MIWELKKDVYVVELDWYPDAPGEMVVLTCDTPEEDGITWTLDQSSEVLGSGKTLTIQVKEFGDAGQYTCHKGGEVLSHSLLLLHKKEDGIWSTDILKDQKEPKNATFLRCEAKNYSGRFTCWWLTTISTDLTFSVKSSRGSSDPQGVTCGAATLSAERVRGDNKEYEYSVECQEDSACPAAEESLPIEVMVDAVHKLKYENYTSSFFIRDIIKPDPPKNLQLKPLKNSRQVEVSWEYPDTWSTPHSYFSLTFSVQVQGKSKREKKDRVFTDKTSATVICRKNASISVRAQDRYYSSSWSEWASVPCSGGGSHHHHHH chain 2: MRNLPVATPDPGMFPSLHHSQNLLRAVSNMLQKARQTLEFYPCTSEEIDHEDITKDKTSTVEACLPLELTKNESCLNSRETSFITNGSSLASRKTSFMMALCLSSIYEDLKMYQVEFKTMNAKLLMDPKRQIFLDQNMLAVIDELMQALNFNSETVPQKSSLEEPDFYKTKIKLCILLHAFRIRAVTIDRVMSYLNAS | 0.34 nM | 0.06 nM
3 | IL-12p70 N201A (protein) chain 1: MIWELKKDVYVVELDWYPDAPGEMVVLTCDTPEEDGITWTLDQSSEVLGSGKTLTIQVKEFGDAGQYTCHKGGEVLSHSLLLLHKKEDGIWSTDILKDQKEPKNKTFLRCEAKNYSGRFTCWWLTTISTDLTFSVKSSRGSSDPQGVTCGAATLSAERVRGDNKEYEYSVECQEDSACPAAEESLPIEVMVDAVHKLKYEAYTSSFFIRDIIKPDPPKNLQLKPLKNSRQVEVSWEYPDTWSTPHSYFSLTFSVQVQGKSKREKKDRVFTDKTSATVICRKNASISVRAQDRYYSSSWSEWASVPCSGGGSHHHHHH chain 2: MRNLPVATPDPGMFPSLHHSQNLLRAVSNMLQKARQTLEFYPCTSEEIDHEDITKDKTSTVEACLPLELTKNESCLNSRETSFITNGSSLASRKTSFMMALCLSSIYEDLKMYQVEFKTMNAKLLMDPKRQIFLDQNMLAVIDELMQALNFNSETVPQKSSLEEPDFYKTKIKLCILLHAFRIRAVTIDRVMSYLNAS | 0.5 nM | 0.04 nM
4 | IL-12p70 K59A (protein) chain 1: MIWELKKDVYVVELDWYPDAPGEMVVLTCDTPEEDGITWTLDQSSEVLGSGKTLTIQVAEFGDAGQYTCHKGGEVLSHSLLLLHKKEDGIWSTDILKDQKEPKNKTFLRCEAKNYSGRFTCWWLTTISTDLTFSVKSSRGSSDPQGVTCGAATLSAERVRGDNKEYEYSVECQEDSACPAAEESLPIEVMVDAVHKLKYENYTSSFFIRDIIKPDPPKNLQLKPLKNSRQVEVSWEYPDTWSTPHSYFSLTFSVQVQGKSKREKKDRVFTDKTSATVICRKNASISVRAQDRYYSSSWSEWASVPCSGGGSHHHHHH chain 2: MRNLPVATPDPGMFPSLHHSQNLLRAVSNMLQKARQTLEFYPCTSEEIDHEDITKDKTSTVEACLPLELTKNESCLNSRETSFITNGSSLASRKTSFMMALCLSSIYEDLKMYQVEFKTMNAKLLMDPKRQIFLDQNMLAVIDELMQALNFNSETVPQKSSLEEPDFYKTKIKLCILLHAFRIRAVTIDRVMSYLNAS | 2.1 nM | 0.07 nM
5 | IL-12p70 E87K,K196E (protein) chain 1: MIWELKKDVYVVELDWYPDAPGEMVVLTCDTPEEDGITWTLDQSSEVLGSGKTLTIQVKEFGDAGQYTCHKGGEVLSHSLLLLHKKKDGIWSTDILKDQKEPKNKTFLRCEAKNYSGRFTCWWLTTISTDLTFSVKSSRGSSDPQGVTCGAATLSAERVRGDNKEYEYSVECQEDSACPAAEESLPIEVMVDAVHELKYENYTSSFFIRDIIKPDPPKNLQLKPLKNSRQVEVSWEYPDTWSTPHSYFSLTFSVQVQGKSKREKKDRVFTDKTSATVICRKNASISVRAQDRYYSSSWSEWASVPCSGGGSHHHHHH chain 2: MRNLPVATPDPGMFPSLHHSQNLLRAVSNMLQKARQTLEFYPCTSEEIDHEDITKDKTSTVEACLPLELTKNESCLNSRETSFITNGSSLASRKTSFMMALCLSSIYEDLKMYQVEFKTMNAKLLMDPKRQIFLDQNMLAVIDELMQALNFNSETVPQKSSLEEPDFYKTKIKLCILLHAFRIRAVTIDRVMSYLNAS | 0.49 nM | 0.24 nM
6 | IL-12p70 W91A (protein) chain 1: MIWELKKDVYVVELDWYPDAPGEMVVLTCDTPEEDGITWTLDQSSEVLGSGKTLTIQVKEFGDAGQYTCHKGGEVLSHSLLLLHKKEDGIASTDILKDQKEPKNKTFLRCEAKNYSGRFTCWWLTTISTDLTFSVKSSRGSSDPQGVTCGAATLSAERVRGDNKEYEYSVECQEDSACPAAEESLPIEVMVDAVHKLKYENYTSSFFIRDIIKPDPPKNLQLKPLKNSRQVEVSWEYPDTWSTPHSYFSLTFSVQVQGKSKREKKDRVFTDKTSATVICRKNASISVRAQDRYYSSSWSEWASVPCSGGGSHHHHHH chain 2: MRNLPVATPDPGMFPSLHHSQNLLRAVSNMLQKARQTLEFYPCTSEEIDHEDITKDKTSTVEACLPLELTKNESCLNSRETSFITNGSSLASRKTSFMMALCLSSIYEDLKMYQVEFKTMNAKLLMDPKRQIFLDQNMLAVIDELMQALNFNSETVPQKSSLEEPDFYKTKIKLCILLHAFRIRAVTIDRVMSYLNAS | 0.53 nM | 0.07 nM
7 | IL-12p70 H195E (protein) chain 1: MIWELKKDVYVVELDWYPDAPGEMVVLTCDTPEEDGITWTLDQSSEVLGSGKTLTIQVKEFGDAGQYTCHKGGEVLSHSLLLLHKKEDGIWSTDILKDQKEPKNKTFLRCEAKNYSGRFTCWWLTTISTDLTFSVKSSRGSSDPQGVTCGAATLSAERVRGDNKEYEYSVECQEDSACPAAEESLPIEVMVDAVEKLKYENYTSSFFIRDIIKPDPPKNLQLKPLKNSRQVEVSWEYPDTWSTPHSYFSLTFSVQVQGKSKREKKDRVFTDKTSATVICRKNASISVRAQDRYYSSSWSEWASVPCSGGGSHHHHHH chain 2: MRNLPVATPDPGMFPSLHHSQNLLRAVSNMLQKARQTLEFYPCTSEEIDHEDITKDKTSTVEACLPLELTKNESCLNSRETSFITNGSSLASRKTSFMMALCLSSIYEDLKMYQVEFKTMNAKLLMDPKRQIFLDQNMLAVIDELMQALNFNSETVPQKSSLEEPDFYKTKIKLCILLHAFRIRAVTIDRVMSYLNAS |  | 0.06 nM
8 | IL-12p70 P21A (protein) chain 1: MIWELKKDVYVVELDWYPDAAGEMVVLTCDTPEEDGITWTLDQSSEVLGSGKTLTIQVKEFGDAGQYTCHKGGEVLSHSLLLLHKKEDGIWSTDILKDQKEPKNKTFLRCEAKNYSGRFTCWWLTTISTDLTFSVKSSRGSSDPQGVTCGAATLSAERVRGDNKEYEYSVECQEDSACPAAEESLPIEVMVDAVHKLKYENYTSSFFIRDIIKPDPPKNLQLKPLKNSRQVEVSWEYPDTWSTPHSYFSLTFSVQVQGKSKREKKDRVFTDKTSATVICRKNASISVRAQDRYYSSSWSEWASVPCSGGGSHHHHHH chain 2: MRNLPVATPDPGMFPSLHHSQNLLRAVSNMLQKARQTLEFYPCTSEEIDHEDITKDKTSTVEACLPLELTKNESCLNSRETSFITNGSSLASRKTSFMMALCLSSIYEDLKMYQVEFKTMNAKLLMDPKRQIFLDQNMLAVIDELMQALNFNSETVPQKSSLEEPDFYKTKIKLCILLHAFRIRAVTIDRVMSYLNAS |  | 0.06 nM
